Measurements reported in publication PMC10556141, “Yeast Rad52 is a homodecamer and possesses BRCA2-like bipartite Rad51 binding modes”.

What was measured:
[1] = biological target: T1, Rad52 (Saccharomyces cerevisiae, UniProt P06778 1-471); assay: tryptophan quenching; high affinity site, two-site sequential model; Anisotropy/FRET: 50 mM Tris-acetate pH 7.5, 50 mM KCl, 5 mM MgCl2, 10% glycerol, 1 mM DTT, 0.2 mg/mL BSA, 23 C; stopped flow: 50 mM Tris-acetate pH 7.5, 5 mM Mg; conditions: protein: recombinant; chain copies: 10; single strand
[2] = biological target: T1, Rad52; assay: tryptophan quenching; lower affinity site, two-site sequential model; Anisotropy/FRET: 50 mM Tris-acetate pH 7.5, 50 mM KCl, 5 mM MgCl2, 10% glycerol, 1 mM DTT, 0.2 mg/mL BSA, 23 C; stopped flow: 50 mM Tris-acetate pH 7.5, 5 mM Mg; conditions: protein: recombinant; chain copies: 10; single strand
[3] = biological target: T1, Rad52; assay: tryptophan quenching; profile similar to (dT)84; Anisotropy/FRET: 50 mM Tris-acetate pH 7.5, 50 mM KCl, 5 mM MgCl2, 10% glycerol, 1 mM DTT, 0.2 mg/mL BSA, 23 C; stopped flow: 50 mM Tris-acetate pH 7.5, 5 mM Mg; conditions: protein: recombinant; chain copies: 10; single strand
[4] = biological target: T2, Rad51 (Saccharomyces cerevisiae, UniProt P25454 1-400); assay: stopped-flow FRET; ATP; filament on Rad52-prebound DNA; Anisotropy/FRET: 50 mM Tris-acetate pH 7.5, 50 mM KCl, 5 mM MgCl2, 10% glycerol, 1 mM DTT, 0.2 mg/mL BSA, 23 C; stopped flow: 50 mM Tris-acetate pH 7.5, 5 mM Mg; conditions: protein: recombinant; label: 5'-Cy5, 3'-Cy3; single strand
[5] = biological target: T1, Rad52; assay: stopped-flow FRET; Anisotropy/FRET: 50 mM Tris-acetate pH 7.5, 50 mM KCl, 5 mM MgCl2, 10% glycerol, 1 mM DTT, 0.2 mg/mL BSA, 23 C; stopped flow: 50 mM Tris-acetate pH 7.5, 5 mM Mg; conditions: protein: recombinant; chain copies: 10; label: 5'-Cy5, 3'-Cy3; single strand
[6] = biological target: T3, Rad52ΔC (Saccharomyces cerevisiae, UniProt P06778 1-217); assay: as above; conditions: protein: recombinant; chain copies: 10; label: 5'-Cy5, 3'-Cy3; single strand
[7] = biological target: T2, Rad51; assay: FRET; outcompetes prebound Rad52 or Rad52ΔC at steady state; Anisotropy/FRET: 50 mM Tris-acetate pH 7.5, 50 mM KCl, 5 mM MgCl2, 10% glycerol, 1 mM DTT, 0.2 mg/mL BSA, 23 C; stopped flow: 50 mM Tris-acetate pH 7.5, 5 mM Mg; conditions: protein: recombinant; label: 5'-Cy5, 3'-Cy3; single strand
[8] = biological target: T1, Rad52; assay: FRET; steady-state wrapping; Anisotropy/FRET: 50 mM Tris-acetate pH 7.5, 50 mM KCl, 5 mM MgCl2, 10% glycerol, 1 mM DTT, 0.2 mg/mL BSA, 23 C; stopped flow: 50 mM Tris-acetate pH 7.5, 5 mM Mg; conditions: protein: recombinant; chain copies: 10; label: 5'-Cy5, 3'-Cy3; single strand
[9] = biological target: T3, Rad52ΔC; assay: as above; conditions: protein: recombinant; chain copies: 10; label: 5'-Cy5, 3'-Cy3; single strand
[10] = biological target: T1, Rad52; assay: FRET; 45 nt sufficient to capture FRET; Anisotropy/FRET: 50 mM Tris-acetate pH 7.5, 50 mM KCl, 5 mM MgCl2, 10% glycerol, 1 mM DTT, 0.2 mg/mL BSA, 23 C; stopped flow: 50 mM Tris-acetate pH 7.5, 5 mM Mg; conditions: protein: recombinant; chain copies: 10; label: 5'-Cy5, 3'-Cy3; single strand
[11] = biological target: T1, Rad52; assay: fluorescence anisotropy; stoichiometric, too tight to fit; Anisotropy/FRET: 50 mM Tris-acetate pH 7.5, 50 mM KCl, 5 mM MgCl2, 10% glycerol, 1 mM DTT, 0.2 mg/mL BSA, 23 C; stopped flow: 50 mM Tris-acetate pH 7.5, 5 mM Mg; conditions: protein: recombinant; chain copies: 10; label: 5'-FAM; single strand
[12] = biological target: T3, Rad52ΔC; assay: as above; conditions: protein: recombinant; chain copies: 10; label: 5'-FAM; single strand
[13] = biological target: T3, Rad52ΔC; assay: AUC sedimentation velocity; Anisotropy/FRET: 50 mM Tris-acetate pH 7.5, 50 mM KCl, 5 mM MgCl2, 10% glycerol, 1 mM DTT, 0.2 mg/mL BSA, 23 C; stopped flow: 50 mM Tris-acetate pH 7.5, 5 mM Mg; conditions: protein: recombinant; chain copies: 10; single strand
[14] = biological target: T1, Rad52; assay: AUC sedimentation velocity; 1:1 decamer:DNA; Anisotropy/FRET: 50 mM Tris-acetate pH 7.5, 50 mM KCl, 5 mM MgCl2, 10% glycerol, 1 mM DTT, 0.2 mg/mL BSA, 23 C; stopped flow: 50 mM Tris-acetate pH 7.5, 5 mM Mg; conditions: protein: recombinant; chain copies: 10; single strand
[15] = biological target: T1, Rad52; assay: fluorescence anisotropy; preformed complex, reversible; Anisotropy/FRET: 50 mM Tris-acetate pH 7.5, 50 mM KCl, 5 mM MgCl2, 10% glycerol, 1 mM DTT, 0.2 mg/mL BSA, 23 C; stopped flow: 50 mM Tris-acetate pH 7.5, 5 mM Mg; conditions: protein: recombinant; chain copies: 10; label: 5'-FAM; single strand
[16] = biological target: T1, Rad52; assay: competition; competes with FAM-(dT)70; Anisotropy/FRET: 50 mM Tris-acetate pH 7.5, 50 mM KCl, 5 mM MgCl2, 10% glycerol, 1 mM DTT, 0.2 mg/mL BSA, 23 C; stopped flow: 50 mM Tris-acetate pH 7.5, 5 mM Mg; conditions: protein: recombinant; chain copies: 10; single strand

B1: (dT)84 (ssDNA)
DNA: TTTTTTTTTTTTTTTTTTTTTTTTTTTTTTTTTTTTTTTTTTTTTTTTTTTTTTTTTTTTTTTTTTTTTTTTTTTTTTTTTTTT
[1]
  Kd: 0.0013 nM
[2]
  Kd: 28 nM

B2: (dT)54 (ssDNA)
DNA: TTTTTTTTTTTTTTTTTTTTTTTTTTTTTTTTTTTTTTTTTTTTTTTTTTTTTT
[3]
  binding result: binds

B3: Cy5-(dT)97-Cy3 (ssDNA)
DNA: TTTTTTTTTTTTTTTTTTTTTTTTTTTTTTTTTTTTTTTTTTTTTTTTTTTTTTTTTTTTTTTTTTTTTTTTTTTTTTTTTTTTTTTTTTTTTTTTT
[4]
  binding result: binds
[5]
  binding result: binds
[6]
  binding result: binds

B4: Cy5-(dT)80-Cy3 (ssDNA)
DNA: TTTTTTTTTTTTTTTTTTTTTTTTTTTTTTTTTTTTTTTTTTTTTTTTTTTTTTTTTTTTTTTTTTTTTTTTTTTTTTTT
[7]
  binding result: binds
[8]
  binding result: binds
[9]
  binding result: binds

## TTTTTTTTTTTTTTTTTTTTTTTTTTTTTTTTTTTTTTTTTTTTT (ssDNA) [Cy5-(dT)45-Cy3]
[10]
  binding result: binds

## TTTTTTTTTTTTTTTTTTTTTTTTTTTTTTTTTTT (ssDNA) [FAM-(dT)35]
[11]
  binding result: binds
[12]
  binding result: binds

## TTTTTTTTTTTTTTTTTTTTTTTTTTTTTTTTTTTTTTTTTTTTT (ssDNA) [(dT)45]
[13]
  binding result: binds
[14]
  binding result: binds

B5: (dT)97 (ssDNA)
DNA: B3 DNA
[13]
  binding result: binds
[14]
  binding result: binds

B6: FAM-(dT)70 (ssDNA)
DNA: TTTTTTTTTTTTTTTTTTTTTTTTTTTTTTTTTTTTTTTTTTTTTTTTTTTTTTTTTTTTTTTTTTTTTT
[15]
  binding result: binds

B7: (dT)70 unlabeled (ssDNA)
DNA: B6 DNA
[16]
  binding result: binds
